Data published in patent US20230265192A1 (GIGAGEN, published 2023).
Read-outs that look alike come from different tables or passages of the source.

Experiments:
[1] = molecular target: T1, His-tagged human CTLA-4 (CT4-H5229; Acro Biosystems) (human, UniProt P16410 36-161); assay: SPR (Carterra)
T1 construct: bought soluble protein; also called soluble human CTLA-4; recombinant human CTLA-4; not shown: His tag
Experimental: (§1) Then, goat anti-Human IgG Fc (Southern Biotech 2047-01) was coupled for 10 minutes at […] in 10 mM Sodim Acetate pH 4.5 (Carterra Inc.). The surface was then deactivated with 1 M ethanolamine pH 8.5 (Carterra Inc.). Running buffer used for the lawn immobilization was HBS-EPC (10 mM HEPES, 150 mM NaCl, 3 mM EDTA, 0.05% Tween 20, pH 7.4; Teknova).
(§2) The sensor chip was then transferred to a continuous flow microspotter (CFM; Carterra Inc.) for array capturing. The mAb supernatants were diluted 50-fold ([…] final concentration) into HBS-EPC with 1 mg/mL BSA. The samples were each captured twice with 15-minute and 4-minute capture steps on the first and second prints, respectively, to create multiple densities, using a […] flow rate. The running buffer in the CFM was also HBS-EPC.
(§3) Next, the sensor chip was loaded onto an SPR reader (MX-96 system; Ibis Technologies) for the kinetic analysis. CTLA-4 was injected at five increasing concentrations in a four-fold dilution series with concentrations of 1.95, 7.8, 31.25, 125, and 500 nM in running buffer (HBS-EPC with 1.0 mg/mL BSA). CTLA-4 injections were 5 minutes with a 15-minute dissociation at […] in a non-regenerative kinetic series. An injection of the goat anti-Human IgG Fc capture antibody at […] was injected at the end of the series to verify the capture level of each mAb. Binding data was double referenced by subtracting an interspot surface and a blank injection and analyzed for ka (on-rate), kd (off-rate), and KD (affinity) using the Kinetic Interaction Tool software (Carterra Inc.).

[2] = molecular target: T1, His-tagged human CTLA-4 (CT4-H5229; …); assay: SPR (Carterra); remark: listed apart in the source
Experimental: as §1, §2, §3

[3] = molecular target: T2, human CTLA-4 expressed on the cell surface (human, UniProt P16410 36-223); assay: cell-based or functional assay
[4] = molecular target: T3, His-tagged cynomolgus CTLA-4 (CT4-C5227; Acro Biosystems) (cynomolgus, UniProt G7PL88 36-161); assay: BLI (Octet)
T3 construct: also called soluble cynomolgus CTLA-4; cyno CTLA-4
Experimental: (§4) The binding specificity and affinity of each full-length antibody towards CTLA-4 were determined using biolayer interferometry (BLI) and/or surface plasmon resonance (SPR). Anti-cyno CTLA-4 and anti-mouse CTLA-4 affinities were tested using ForteBio (BLI). Anti-human CTLA-4 affinities were measured using Carterra (SPR).
(§5) For BLI, antibodies were loaded onto an Anti-Human IgG Fc (AHC) biosensor using the Octet Red96 system (ForteBio). Loaded biosensors were dipped into antigen dilutions beginning at 300 nM, with 6 serial dilutions at 1:3. Kinetic analysis was performed using a 1:1 binding model and global fitting.

CD27 on CHO cells [5] = molecular target: T4, CD27 on CHO cells (UniProt P26842 20-260, limits assumed); assay: flow cytometry, 10 µg/mL mAb, geometric MFI
T4 construct: whole, on cells; also called CD27+ CHO cells; irrelevant antigen (CD27)
Experimental: (§6) Table 23. In vitro characterization of scFvs reformatted as full-length antibodies. kon, koff, and KD of the indicated CTLA-4 mAbs for soluble human CTLA-4 was determined by SPR (Carterra). Geometric MFI of the indicated CTLA-4 mAbs bound to CTLA-4⁺ or CD27⁺ CHO cells as detected by a secondary human IgG antibody and flow cytometry. Affinity (KD) of the indicated CTLA-4 mAbs for soluble cynomolgus CTLA-4 was determined by a single antigen concentration BLI measurement (Octet). […] Due to constraints on sample size in each Promega bioassay kit, this set of aCTLA-4 mAbs was analyzed using multiple plates (plate letters correspond to Plate A-D in FIG. 20D).
(§7) To determine if the CTLA-4 mAbs bound the appropriate antigen expressed on the surface of mammalian cells, CHO cell lines stably expressing human CTLA-4 or an irrelevant antigen (CD27) were generated. Cells (0.5×10⁶ each cell line) were combined and washed with MACS buffer (Dulbecco's Phosphate Buffered Saline [DPBS], with 0.5% bovine serum albumin [BSA], and 2 mM ethylenediaminetetraacetic acid [EDTA]). The cells were incubated with 10 μg/mL anti-CTLA-4 for 30 min at 4° C., then excess, unbound mAbs were removed by washing twice with MACS buffer. The cells were then stained with PE-conjugated anti-Human IgG Fc antibody (clone M1310G05, BioLegend 410720, San Diego, Calif., USA) to detect bound anti-CTLA-4 and with fluorescein isothiocyanate (FITC)-conjugated anti-CD27 (clone 0323, BioLegend 302806, San Diego, Calif., USA) to distinguish the cells expressing the irrelevant antigen. Cells were washed twice with MACS buffer, fixed with 4% paraformaldehyde fixation buffer (BioLegend 420801, San Diego, Calif., USA) for 20 minutes at room temperature and washed twice more with MACS buffer.

CD27 on CHO cells [6] = molecular target: T4, CD27 on CHO cells; assay: flow cytometry, mixed CTLA-4+ and CD27+ CHO cells
Experimental: To determine if the CTLA-4 mAbs bound the appropriate antigen expressed on the surface of mammalian cells, CHO cell lines stably expressing human CTLA-4 or an irrelevant antigen (CD27) were generated. Cells (0.5×10⁶ each cell line) were combined and washed with MACS buffer (Dulbecco's Phosphate Buffered Saline [DPBS], with 0.5% bovine serum albumin [BSA], and 2 mM ethylenediaminetetraacetic acid [EDTA]). The cells were incubated with 10 μg/mL anti-CTLA-4 for 30 min at 4° C., then excess, unbound mAbs were removed by washing twice with MACS buffer. The cells were then stained with PE-conjugated anti-Human IgG Fc antibody (clone M1310G05, BioLegend 410720, San Diego, Calif., USA) to detect bound anti-CTLA-4 and with fluorescein isothiocyanate (FITC)-conjugated anti-CD27 (clone 0323, BioLegend 302806, San Diego, Calif., USA) to distinguish the cells expressing the irrelevant antigen. Cells were washed twice with MACS buffer, fixed with 4% paraformaldehyde fixation buffer (BioLegend 420801, San Diego, Calif., USA) for 20 minutes at room temperature and washed twice more with MACS buffer. […] Binding of mAbs to CTLA-4 on the cell surface was determined using LSR II (BD Biosciences, San Jose, Calif., USA) or CytoFLEX LX (Beckman Coulter, Brea. Calif., USA) flow cytometers and analyzed using FlowJo (v10.6.1, BD Biosciences, San Jose, Calif., USA).

mouse CTLA-4 = mouse CTLA-4 (mouse, UniProt P09793 36-161, limits assumed); assay: BLI (Octet)
Experimental: as §4, §5

[7] = molecular target: T2, human CTLA-4 expressed on the cell …; assay: flow cytometry, 10 µg/mL mAb, geometric MFI
Experimental: as §6, §7

T3 sequence (G7PL88 entry or part of it limits assumed, form in doubt): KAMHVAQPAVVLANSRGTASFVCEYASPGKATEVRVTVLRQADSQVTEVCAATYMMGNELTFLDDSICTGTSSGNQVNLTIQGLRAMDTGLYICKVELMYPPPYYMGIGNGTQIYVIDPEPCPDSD
T4 sequence (P26842 20-260 limits assumed): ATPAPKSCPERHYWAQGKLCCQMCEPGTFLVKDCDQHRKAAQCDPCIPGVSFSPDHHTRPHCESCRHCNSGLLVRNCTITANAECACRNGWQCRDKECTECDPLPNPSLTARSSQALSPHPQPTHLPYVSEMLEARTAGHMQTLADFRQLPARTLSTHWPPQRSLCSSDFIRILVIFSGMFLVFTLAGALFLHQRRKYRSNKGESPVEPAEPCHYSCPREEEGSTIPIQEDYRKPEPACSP
T1 sequence (P16410 36-161 limits assumed): as the sequence (G7PL88 entry or part of it limits assumed, form in doubt) above, with N14S, T18I, M106L counted along it
T2 sequence (P16410 36-223 limits assumed): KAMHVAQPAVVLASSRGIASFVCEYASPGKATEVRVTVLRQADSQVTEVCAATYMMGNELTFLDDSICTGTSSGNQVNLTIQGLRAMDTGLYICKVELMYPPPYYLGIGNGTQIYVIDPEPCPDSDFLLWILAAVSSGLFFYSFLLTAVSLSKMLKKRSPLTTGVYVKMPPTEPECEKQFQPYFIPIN
mouse CTLA-4, sequence (P09793 36-161 limits assumed): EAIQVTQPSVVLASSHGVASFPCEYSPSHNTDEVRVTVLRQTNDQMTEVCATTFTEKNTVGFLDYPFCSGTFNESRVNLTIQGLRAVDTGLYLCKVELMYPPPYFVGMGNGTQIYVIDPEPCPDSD

Binder	Kd [1] [nM]	koff [1] [s⁻¹]	kon [1] [M⁻¹ s⁻¹]	Kd [2] [nM]	Promega assay % inhibition [3] [%]	Kd [4] [nM]	MFI of CD27+ CHO cells (CD27 on CHO cells [5])	binding result (CD27 on CHO cells [6])	Promega assay antagonist (EC50, ug/mL) [3] [µg/mL]	binding result (mouse CTLA-4)	MFI of CTLA-4+ CHO cells [7]
antibody A15 (L15H15) (antibody, V domains shown, also called aCTLA-4.18) VH: QVQLVESGGGVVQPGRSLRLSCAASGFTFRSYGMHWVRQAPGKGLEWVAVIWYDGSNKHYADSVKGRFTISRDNSKNTLYLQMNSLRAEDTAVYYCARNGLIGAFDIWGQGTMVTVSS VL: not shown	10	0.00073	70000	10	0	2.6					
antibody A12 (L12H12) (antibody, V domains shown, also called aCTLA-4.12; CTLA4.A12) VH: QVQLVESGGGVVQPGRSLRLSCAASGFTFSSYGMHWVRQAPGKGLEWVAVIWYDGSNKYYADSVKGRFTFSRDNSKNTLYLQMNSLRAEDTAVYYCARGGLMGAFDYWGQGTLVTVSS VL: not shown							17.1	no binding (tested: 10 µg/mL)			
antibody A18 (L18H18) (antibody, V domains shown, also called aCTLA-4.11) VH: QVQLVESGGGVVQPGRSLRLSCAASGFTFSSYGMHWVRQAPGKGLEWVAVIWYDGSNKFYADSVKGRFTISSDNSKNTLYLQMNSLRAEDTAVYYCARGGHLGSFDYWGQGTLVTVSS VL: EIVLTQSPGTLSLSPGERATLSCRASQSVSYLAWYQQKPGQAPRLLIYGASSRATGIPDRFSGSGSGTDFTLTISRLEPEDFAVYYCQQYGSSPWTFGQGTKVEIK							14.8	no binding (tested: 10 µg/mL)			
antibody A11 (L11H11) (antibody, V domains shown, also called aCTLA-4.31) VH: QVQLVESGGGVVQPGRSLRLSCAASGFTFSSYGMHWVRQAPGKGLEWVAVIWYDVGNKYYIDSVKGRFTISRDNSKNTLYLQMNSLRAEDTAVYYCARDYYGSGSPRHFDYWGQGTLVTVSS VL: DIQLTQSPSFLSASVGDRVTITCRASQGISSYLAWYQQKPGKAPKLLIYAASTLQSGVPSRFSGSGSGTEFTLTISSLQPEDFATYYCQQLNSYPPTFGQGTKVEIK	7.5	0.00035	47000	7.5	26.6	1.6			0.42	no binding (tested: 300 nM)	
antibody A16 (L16H16) (antibody, V domains shown, also called aCTLA-4.5) VH: QVQLVESGGGVVQPGRSLRLSCAASGFTFSSYGIHWVRQAPGKGLEWVAVIWYDGSNKYYADSVKGRFTISRDNSKNTLYLQMNSLRAEDTAVYYCARGSLLGPFDYWGQGTLVTVSS VL: DIQMTQSPSSLSASVGDRVTITCRASQGISNYLAWYQQKPGKVPKLLIYAASTLQSGVPSRFSGSGSGTDFTLTISSLQPEDVATYYCQNYNSAPWTFGQGTKVEIK	23	0.00072	31000	23	0	2.8					
antibody A17 (L17H17) (antibody, V domains shown, also called aCTLA-4.17) VH: EVQLVESGGGLVQPGGSLRLSCAASGFTFSNYAMSWVRQAPGKGLEWVSAISGGGLSTYYADSVKGRFTISRDNSKNTLYLQMNSLRAEDTAVYYCAKDLLWLGFDYWGQGTLVTVSS VL: DIQMTQSPSSLSASVGDRVTITCRASQAIRNDLGWYQQKPGKAPKRLIYAASSLQSGVPPRFSGSGSGTEFTLTISSLQPEDFATYYCLQHNSYPLTFGGGTKVEIK	51	0.0034	66000	51	0	6.3					
antibody A21 (L21H21) (antibody, V domains shown, also called aCTLA-4.10) VH: QVQLVESGGGVVQPGRSLRLSCAASGFTFSSYGMHWVRQAPGKGLEWVAVIWYDGNNKYYADSVKGRFTISRDNSKNTLYLHMNSLRADDTAVYYCARMLRGAPYYYGMDVWGQGTTVTVSS VL: not shown	31	0.00055	18000	31							
antibody A26 (L26H26) (antibody, V domains shown, also called aCTLA-4.20) VH: QVQLVQSGAEVKKPGASVKVSCKASDYTFTYYGISWVRQAPGQGLEWMGWISAYNGNTNYAQKLQGRVTMTTDTSTNTAYLELRSLRSDDTAVYYCARDYYDSSGYFDYWGQGTLVTVSS VL: not shown	74	0.00026	3500	74							
antibody A27 (L27H27) (antibody, V domains shown, also called aCTLA-4.8) VH: QVQLVQSGAEVKKPGASVKVSCKASGYTFTSYGISWVRQAPGQGLEWMGWISAYNGNTNYAQKLQGRVTMTTDTSTSTAYMELRSLRSDDTAVYYCGRWVRGVEYWGQGTLVTVSS VL: not shown	120	0.0036	31000	120							
antibody A14 (L14H14), GIGA-564 (antibody, V domains shown, also called aCTLA-4.15) VH: QVQLVESGGGVVQPGRSLRLSCAASGFTFSSYGMHWVRQAPGTGLEWVAVIWYEGRNKYYADPVKGRFTISRDNSKNTLYLQMNSLRDDDTAVYYCARAGDLGAFDIWGQGTMVTVSSA VL: not shown							15.9	no binding (tested: 10 µg/mL)			717
Ipilimumab analog (antibody, V domains shown, also called ipi analog; in-house produced ipilimumab) VH: QVQLVESGGGVVQPGRSLRLSCAASGFTFSSYTMHWVRQAPGKGLEWVTFISYDGNNKYYADSVKGRFTISRDNSKNTLYLQMNSLRAEDTAIYYCARTGWLGPFDYWGQGTLVTVSS VL: not shown										no binding (tested: 300 nM)	
